For data set [1], the target named is BgaA β-galactosidase (Bbr_0010) (B. breve UCC2003). The data set is described as follows: SEC-MALS; Superose 6 10/300 G/L, 50 mM Tris-HCl, 150 mM NaCl, pH 7.5, 0.5 mL/min; dual-angle light scattering (RALS/LALS) and refractometer (OmniSec REVEAL); protein concentrations in Supplementary Table 1; native mass compared with the calculated monomer mass (with His-tag).

Data set [2] has as its target BgaD β-galactosidase (B8809_0415) (B. longum subsp. longum NCIMB 8809). The data set is described as above.
Data set [3] has as its target BgaB β-galactosidase (Bbr_0529) (B. breve UCC2003). The description is as above.
Data set [4] has as its target BgaC β-galactosidase (B216_08266) (B. bifidum LMG 13195). Described as above.
Data set [5] deals with O=[N+]([O-])c1ccccc1O[C@@H]1O[C@H](CO)[C@H](O)[C@H](O)[C@H]1O. The data set is described as follows: o-nitrophenol release, A420. The class given is biochemical, Bifidobacterium longum subsp. longum. The settings on record: 0.1 M sodium acetate pH 6.5, 40 °C, unit mM, not in table. From the text:
o-nitrophenol release, A420 on BgaF

Data set [6] addresses BgaE β-galactosidase (B8809_0611) (B. longum subsp. longum NCIMB 8809). The data set is described as follows: SEC-MALS; Superose 6 10/300 G/L, 50 mM Tris-HCl, 150 mM NaCl, pH 7.5, 0.5 mL/min; dual-angle light scattering (RALS/LALS) and refractometer (OmniSec REVEAL); protein concentrations in Supplementary Table 1; native mass compared with the calculated monomer mass (with His-tag).

In data set [7] the target is BgaG β-galactosidase (Blon_2016) (B. longum subsp. infantis ATCC 15697). The description is as above.

The stoichiometry N is the number of molecules, sites or subunits per partner or assembly. One may read the Km as the substrate concentration at which the rate is half of its maximum.

Take “BgaA β-galactosidase (Bbr_0010) (enzyme)”: in data set [1], the stoichiometry N was 2. Take “BgaD β-galactosidase (B8809_0415) (enzyme)”: the stoichiometry N in data set [2] is 3. Take “BgaB β-galactosidase (Bbr_0529) (enzyme)”: the stoichiometry N in data set [3] was 3.

As for “BgaC β-galactosidase (B216_08266) (enzyme)”, the stoichiometry N in data set [4] is 3. Regarding “BgaF (Bifidobacterium longum subsp. longum)”, the Km in data set [5] was 5.178 mM. Turning to “BgaE β-galactosidase (B8809_0611) (enzyme)”, in data set [6], the stoichiometry N was 4. Consider “BgaG β-galactosidase (Blon_2016) (enzyme)”, for which the stoichiometry N in data set [7] was 3.

These data come from publication PMC8126724, “Infant-Associated Bifidobacterial β-Galactosidases and Their Ability to Synthesize Galacto-Oligosaccharides” (Frontiers in Microbiology, 2021).
